The target of series [1] is T1, MukB-His (wild type MukB) (E. coli, UniProt P22523 1-1486).
T1 sequence (looked up): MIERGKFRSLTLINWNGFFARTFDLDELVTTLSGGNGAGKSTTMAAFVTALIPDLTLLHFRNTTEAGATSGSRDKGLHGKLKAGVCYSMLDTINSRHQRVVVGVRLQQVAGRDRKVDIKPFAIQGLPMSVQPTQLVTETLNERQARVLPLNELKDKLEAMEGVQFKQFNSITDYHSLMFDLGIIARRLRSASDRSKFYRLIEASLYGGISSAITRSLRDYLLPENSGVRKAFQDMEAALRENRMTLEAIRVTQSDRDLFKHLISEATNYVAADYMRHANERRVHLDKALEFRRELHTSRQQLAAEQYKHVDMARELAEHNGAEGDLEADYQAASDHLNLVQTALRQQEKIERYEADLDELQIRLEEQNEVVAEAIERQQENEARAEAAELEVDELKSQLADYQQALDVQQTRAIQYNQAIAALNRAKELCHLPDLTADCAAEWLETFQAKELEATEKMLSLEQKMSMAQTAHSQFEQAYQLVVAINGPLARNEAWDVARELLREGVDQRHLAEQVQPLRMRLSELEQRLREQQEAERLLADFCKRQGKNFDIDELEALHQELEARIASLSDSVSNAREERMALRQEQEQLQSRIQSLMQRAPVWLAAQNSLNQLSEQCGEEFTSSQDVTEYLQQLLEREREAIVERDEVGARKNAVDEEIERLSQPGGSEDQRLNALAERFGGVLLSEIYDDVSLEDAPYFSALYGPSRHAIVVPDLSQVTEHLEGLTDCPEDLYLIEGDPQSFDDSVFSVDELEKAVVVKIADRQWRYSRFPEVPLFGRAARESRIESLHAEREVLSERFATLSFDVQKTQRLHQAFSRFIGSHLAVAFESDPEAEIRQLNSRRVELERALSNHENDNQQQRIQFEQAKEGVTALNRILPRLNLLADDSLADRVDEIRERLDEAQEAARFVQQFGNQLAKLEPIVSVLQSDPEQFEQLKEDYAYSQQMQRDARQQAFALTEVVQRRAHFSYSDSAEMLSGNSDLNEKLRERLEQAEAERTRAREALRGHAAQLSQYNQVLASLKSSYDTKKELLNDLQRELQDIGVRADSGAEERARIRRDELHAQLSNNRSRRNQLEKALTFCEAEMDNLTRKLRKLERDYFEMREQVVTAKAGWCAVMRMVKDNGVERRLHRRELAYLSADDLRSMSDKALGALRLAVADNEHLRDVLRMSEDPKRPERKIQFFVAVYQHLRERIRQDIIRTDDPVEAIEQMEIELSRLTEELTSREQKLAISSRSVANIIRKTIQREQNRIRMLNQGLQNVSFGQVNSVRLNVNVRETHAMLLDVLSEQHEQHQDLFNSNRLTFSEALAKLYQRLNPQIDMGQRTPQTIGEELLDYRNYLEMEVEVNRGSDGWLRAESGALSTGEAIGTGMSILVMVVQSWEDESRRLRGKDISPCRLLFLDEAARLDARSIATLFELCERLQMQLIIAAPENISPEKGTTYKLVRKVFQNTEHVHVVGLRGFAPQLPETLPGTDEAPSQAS
The series is described as follows: native MS.

The series “native MS” concerns the molecule itself. The series is described as follows: native MS.

B1: His-MukF (natural protein, E. coli, UniProt P60293 1-440, looked up)
chain: MSEFSQTVPELVAWARKNDFSISLPVDRLSFLLAVATLNGERLDGEMSEGELVDAFRHVSDAFEQTSETIGVRANNAINDMVRQRLLNRFTSEQAEGNAIYRLTPLGIGITDYYIRQREFSTLRLSMQLSIVAGELKRAADAAEEGGDEFHWHRNVYAPLKYSVAEIFDSIDLTQRLMDEQQQQVKDDIAQLLNKDWRAAISSCELLLSETSGTLRELQDTLEAAGDKLQANLLRIQDATMTHDDLHFVDRLVFDLQSKLDRIISWGQQSIDLWIGYDRHVHKFIRTAIDMDKNRVFAQRLRQSVQTYFDEPWALTYANADRLLDMRDEEMALRDEEVTGELPEDLEYEEFNEIREQLAAIIEEQLAVYKTRQVPLDLGLVVREYLSQYPRARHFDVARIVIDQAVRLGVAQADFTGLPAKWQPINDYGAKVQAHVIDKY
For B1, the binding result (in series [1]; in “native MS”) was “binds” in each case.

The record behind these values is article doi:10.1101/2021.04.12.439405 (bioRxiv, 2021).
